Data taken from patent publication US20200140542A1 (OSAKA UNIVERSITY, published 2020).

What was measured:
mouse CL-2 [1] = target: T1, mouse CL-2 (mouse, UniProt O88552 1-230); assay: flow cytometry, culture supernatant on transfected cells
T1 construct: whole, on cells; also called mCL-2; mCL-2/L cells
T1 sequence (looked up): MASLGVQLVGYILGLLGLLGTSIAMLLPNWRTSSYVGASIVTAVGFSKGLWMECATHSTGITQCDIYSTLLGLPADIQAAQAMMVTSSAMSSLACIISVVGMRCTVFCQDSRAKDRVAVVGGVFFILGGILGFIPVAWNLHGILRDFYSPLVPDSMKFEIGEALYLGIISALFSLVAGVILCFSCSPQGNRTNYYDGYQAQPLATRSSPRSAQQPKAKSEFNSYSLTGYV
Procedure: (§1) After the hybridoma culture supernatants prepared in Example 1 (1A2, 2G8, and 3B2) were individually added and stirred, the resulting mixtures were allowed to stand on ice for 1 hour. After washing with 0.2% BSA-PBS once, goat anti-rat IgG (H +L)-FITC antibody (KPL) diluted with 1% BSA-PBS was added and stirred, and the resulting mixtures were allowed to stand on ice for 30 minutes. After washing with 0.2% BSA-PBS once, PI (Mitenyi Biotec) diluted with 1% BSA-PBS to a final concentration of 5 μg/mL was added, and FCM analysis was performed.
Further, all the three hybridoma culture supernatants 1A2, 2G8, and 3B2 prepared in Example 1 were also confirmed to have affinity to mCL-2/L cells.

human CL-4 [2] = target: T2, human CL-4 (human, UniProt O14493 1-209); assay: flow cytometry, hybridoma culture supernatant on transfected cells
T2 construct: whole, on cells; also called hCL-4; hCL-4/HT1080 cells
T2 sequence (looked up): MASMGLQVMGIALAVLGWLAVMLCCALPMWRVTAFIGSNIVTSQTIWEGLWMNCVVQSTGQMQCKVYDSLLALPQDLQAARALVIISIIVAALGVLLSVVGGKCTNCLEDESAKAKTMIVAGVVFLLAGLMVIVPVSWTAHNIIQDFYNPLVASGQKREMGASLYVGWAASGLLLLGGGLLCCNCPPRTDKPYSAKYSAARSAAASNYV
Procedure: as §1

human CL-6 [3] = target: T3, human CL-6 (human, UniProt P56747 1-220); assay: as above
T3 construct: whole, on cells; also called hCL-6; hCL-6/HT1080 cells
T3 sequence (looked up): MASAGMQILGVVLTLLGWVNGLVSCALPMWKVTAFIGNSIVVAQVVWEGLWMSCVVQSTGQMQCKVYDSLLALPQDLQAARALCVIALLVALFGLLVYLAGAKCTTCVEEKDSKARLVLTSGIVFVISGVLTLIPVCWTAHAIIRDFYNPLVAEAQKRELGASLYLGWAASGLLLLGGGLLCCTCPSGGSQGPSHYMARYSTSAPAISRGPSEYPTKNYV
Procedure: as §1

human CL-7 [4] = target: T4, human CL-7 (human, UniProt O95471 1-211); assay: as above
T4 construct: whole, on cells; also called hCL-7; hCL-7/HT1080 cells
T4 sequence (looked up): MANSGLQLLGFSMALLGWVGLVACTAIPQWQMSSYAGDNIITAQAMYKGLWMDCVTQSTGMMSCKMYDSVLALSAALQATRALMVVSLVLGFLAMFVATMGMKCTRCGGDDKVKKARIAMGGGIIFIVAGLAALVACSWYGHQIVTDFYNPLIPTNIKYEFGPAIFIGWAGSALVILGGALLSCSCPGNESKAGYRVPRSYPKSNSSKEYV
Procedure: as §1

human CL-9 [5] = target: T5, human CL-9 (human, UniProt O95484 1-217); assay: as above
T5 construct: whole, on cells; also called hCL-9; hCL-9/HT1080 cells
T5 sequence (looked up): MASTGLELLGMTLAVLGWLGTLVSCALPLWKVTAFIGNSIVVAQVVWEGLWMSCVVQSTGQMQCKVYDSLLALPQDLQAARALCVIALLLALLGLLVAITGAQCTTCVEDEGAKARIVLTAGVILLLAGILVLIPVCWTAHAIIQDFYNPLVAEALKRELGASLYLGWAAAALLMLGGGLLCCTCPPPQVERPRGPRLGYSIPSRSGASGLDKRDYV
Procedure: as §1

human CL-1 [6] = target: T6, human CL-1 (human, UniProt O95832 1-211); assay: as above
T6 construct: whole, on cells; also called hCL-1; hCL-1/HT1080 cells
T6 sequence (looked up): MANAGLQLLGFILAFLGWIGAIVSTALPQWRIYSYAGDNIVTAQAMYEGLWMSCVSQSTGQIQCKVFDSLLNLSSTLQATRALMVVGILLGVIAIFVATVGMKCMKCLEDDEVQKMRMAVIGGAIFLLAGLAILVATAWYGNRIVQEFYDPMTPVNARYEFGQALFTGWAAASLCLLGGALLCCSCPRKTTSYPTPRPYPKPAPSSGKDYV
Procedure: as §1

human CL-3 [7] = target: T7, human CL-3 (human, UniProt O15551 1-220); assay: as above
T7 construct: whole, on cells; also called hCL-3; hCL-3/HT1080 cells
T7 sequence (looked up): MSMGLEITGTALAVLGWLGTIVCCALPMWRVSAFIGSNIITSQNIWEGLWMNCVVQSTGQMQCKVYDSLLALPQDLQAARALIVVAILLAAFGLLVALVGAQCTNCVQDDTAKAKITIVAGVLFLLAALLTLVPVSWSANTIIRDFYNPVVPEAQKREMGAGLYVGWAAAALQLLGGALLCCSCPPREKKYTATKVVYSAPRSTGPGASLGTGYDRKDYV
Procedure: as §1

human CL-4 [8] = target: T2, human CL-4; assay: flow cytometry on transfected cells
Description: (§2) hCL-1/HT1080 cells, hCL-2/HT1080 cells, hCL-3/HT1080 cells, hCL-4/HT1080 cells, human CL-5 expressing HT1080 cells (hCL-5/HT1080 cells), hCL-6/HT1080 cells, hCL-7/HT1080 cells, and hCL-9/HT1080 cells, mouse CLDN1 expressing L cells (mCL-1/L cells), mCL-2/L cells, and mouse CL4 expressing L cells (mCL-4/L cells) were individually recovered by trypsin treatment. […] Subsequently, after washing with 0.2% BSA-PBS once, goat anti-human IgG (H+L)-FITC antibody (Jackson ImmunoResearch) diluted with 1% BSA-PBS was added and stirred, and the resulting mixtures were allowed to stand on ice for 30 minutes. After washing with 0.2% BSA-PBS once, PI diluted with 1% BSA-PBS to a final concentration of 5 μg/mL was added, and FCM analysis was performed.

human CL-5 = target: T8, human CL-5 (human, UniProt O00501 1-218); assay: flow cytometry on transfected cells
T8 construct: whole, on cells; also called hCL-5; hCL-5/HT1080 cells
T8 sequence (looked up): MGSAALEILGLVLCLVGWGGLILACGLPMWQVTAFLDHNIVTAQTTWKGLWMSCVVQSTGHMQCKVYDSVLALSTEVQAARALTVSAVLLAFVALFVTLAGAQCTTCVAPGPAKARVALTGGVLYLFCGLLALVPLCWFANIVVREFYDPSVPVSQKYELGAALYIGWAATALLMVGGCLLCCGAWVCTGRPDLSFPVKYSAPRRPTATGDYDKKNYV
Description: as §2

human CL-6 [9] = target: T3, human CL-6; assay: flow cytometry on transfected cells
Description: as §2

human CL-7 [10] = target: T4, human CL-7; assay: flow cytometry on transfected cells
Description: as §2

human CL-9 [11] = target: T5, human CL-9; assay: flow cytometry on transfected cells
Description: as §2

mouse CLDN1 = target: T9, mouse CLDN1 (mouse, UniProt O88551 1-211); assay: flow cytometry on transfected cells
T9 construct: whole, on cells; also called mCL-1; mCL-1/L cells
T9 sequence (looked up): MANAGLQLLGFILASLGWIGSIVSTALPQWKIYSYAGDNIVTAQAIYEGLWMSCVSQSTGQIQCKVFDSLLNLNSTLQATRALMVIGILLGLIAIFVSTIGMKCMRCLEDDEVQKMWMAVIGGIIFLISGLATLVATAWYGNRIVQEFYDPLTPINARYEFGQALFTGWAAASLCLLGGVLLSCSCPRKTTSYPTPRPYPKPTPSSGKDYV
Description: as §2

mouse CL4 = target: T10, mouse CL4 (mouse, UniProt O35054 1-210); assay: flow cytometry on transfected cells
T10 construct: whole, on cells; also called mCL-4; mCL-4/L cells
T10 sequence (looked up): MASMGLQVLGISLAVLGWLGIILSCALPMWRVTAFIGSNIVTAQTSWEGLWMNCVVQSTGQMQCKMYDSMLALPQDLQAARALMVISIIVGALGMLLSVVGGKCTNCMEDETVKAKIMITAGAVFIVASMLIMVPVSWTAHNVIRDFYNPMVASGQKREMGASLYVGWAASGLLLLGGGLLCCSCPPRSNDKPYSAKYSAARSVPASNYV
Description: as §2

human CL-1 [12] = target: T6, human CL-1; assay: flow cytometry on transfected cells
Description: as §2

human CL-3 [13] = target: T7, human CL-3; assay: flow cytometry on transfected cells
Description: as §2

mouse CL-2 [14] = target: T1, mouse CL-2; assay: flow cytometry on transfected cells, antibody at 5 µg/mL
Description: as §2

B1: anti-CL-2 antibody 2G8 (antibody, IgG2b, V domains shown)
VH: QVNLLQSGAALVKPGASVRLSCRVSGYSFTVSFLHWVKQSHGKSLEWIGYINPYSGSPNYNEKFKSKTTLTVDKSTSTAYMELSGLTSEDSASYYCTNWDYWGQGVMVTVSS
VL: DVVMTQTPVSLSLAIGQPASISCKSSQSLLGSSGKTFLNWILQRPGQSPKRLIYQVSTLYSEVPDRFSGSGSETEFTLKITRVEAEDLGVYYCWQGIHFPHTFGAGTKLELKR
notes: also called clone 2G8; hybridoma culture supernatant 2G8
Mouse CL-2 [1]
  binding result: binds
Human CL-4 [2]
  binding result: no binding
Human CL-6 [3]
  binding result: no binding
Human CL-7 [4]
  binding result: no binding
Human CL-9 [5]
  binding result: no binding
Human CL-1 [6]
  binding result: no binding
Human CL-3 [7]
  binding result: no binding

B2: anti-CL-2 human-rat chimeric antibody 2G8 produced in Example 4 (antibody, V domains shown)
VH: B1 VH
VL: B1 VL
notes: Variable regions of rat 2G8 cloned into vectors with human constant regions (VH: pFUSE-CHIg-hG1, human IgG1); also called anti-CL-2 chimeric antibody 2G8; anti-CL-2 chimeric antibody 2G8a
Human CL-4 [8]
  binding result: no binding (tested: 5 µg/mL)
Human CL-5
  binding result: no binding (tested: 5 µg/mL)
Human CL-6 [9]
  binding result: no binding (tested: 5 µg/mL)
Human CL-7 [10]
  binding result: no binding (tested: 5 µg/mL)
Human CL-9 [11]
  binding result: no binding (tested: 5 µg/mL)
Mouse CLDN1
  binding result: no binding (tested: 5 µg/mL)
Mouse CL4
  binding result: no binding (tested: 5 µg/mL)
Human CL-1 [12]
  binding result: no binding (tested: 5 µg/mL)
Human CL-3 [13]
  binding result: no binding (tested: 5 µg/mL)
Mouse CL-2 [14]
  binding result: binds
